Data taken from patent publication US6426205 (MOUNT SINAI HOSPITAL, dated 2002).

T1: Gal4^AD-Met30 isolates (yeast, UniProt P39014 1-640, limits assumed)
T1 construct: Library clones; all contained the F-box; also called Met30 two hybrid isolates; full length Met30 in the two hybrid system
T1 sequence: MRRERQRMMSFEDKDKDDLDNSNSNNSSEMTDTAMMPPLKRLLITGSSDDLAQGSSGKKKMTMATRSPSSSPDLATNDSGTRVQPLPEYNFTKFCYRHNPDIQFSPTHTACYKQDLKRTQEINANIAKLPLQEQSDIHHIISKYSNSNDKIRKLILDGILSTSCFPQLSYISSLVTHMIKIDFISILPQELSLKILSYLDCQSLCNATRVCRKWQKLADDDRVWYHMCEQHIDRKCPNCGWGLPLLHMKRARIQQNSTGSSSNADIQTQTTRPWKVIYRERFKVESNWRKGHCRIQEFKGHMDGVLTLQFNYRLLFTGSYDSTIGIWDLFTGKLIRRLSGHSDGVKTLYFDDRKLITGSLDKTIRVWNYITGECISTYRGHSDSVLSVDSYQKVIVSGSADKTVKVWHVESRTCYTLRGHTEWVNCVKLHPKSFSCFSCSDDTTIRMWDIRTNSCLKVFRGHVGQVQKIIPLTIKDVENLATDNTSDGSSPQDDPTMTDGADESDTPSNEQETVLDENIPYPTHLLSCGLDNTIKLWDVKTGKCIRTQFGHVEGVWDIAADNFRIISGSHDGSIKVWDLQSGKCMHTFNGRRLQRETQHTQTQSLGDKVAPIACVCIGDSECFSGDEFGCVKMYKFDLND

T2: Gal4^AD-Cdc4 isolates (budding yeast, UniProt P07834 1-779, limits assumed)
T2 construct: Library clones; all contained the F-box; also called Cdc4 two hybrid isolates; full length Cdc4 in the two hybrid system
T2 sequence: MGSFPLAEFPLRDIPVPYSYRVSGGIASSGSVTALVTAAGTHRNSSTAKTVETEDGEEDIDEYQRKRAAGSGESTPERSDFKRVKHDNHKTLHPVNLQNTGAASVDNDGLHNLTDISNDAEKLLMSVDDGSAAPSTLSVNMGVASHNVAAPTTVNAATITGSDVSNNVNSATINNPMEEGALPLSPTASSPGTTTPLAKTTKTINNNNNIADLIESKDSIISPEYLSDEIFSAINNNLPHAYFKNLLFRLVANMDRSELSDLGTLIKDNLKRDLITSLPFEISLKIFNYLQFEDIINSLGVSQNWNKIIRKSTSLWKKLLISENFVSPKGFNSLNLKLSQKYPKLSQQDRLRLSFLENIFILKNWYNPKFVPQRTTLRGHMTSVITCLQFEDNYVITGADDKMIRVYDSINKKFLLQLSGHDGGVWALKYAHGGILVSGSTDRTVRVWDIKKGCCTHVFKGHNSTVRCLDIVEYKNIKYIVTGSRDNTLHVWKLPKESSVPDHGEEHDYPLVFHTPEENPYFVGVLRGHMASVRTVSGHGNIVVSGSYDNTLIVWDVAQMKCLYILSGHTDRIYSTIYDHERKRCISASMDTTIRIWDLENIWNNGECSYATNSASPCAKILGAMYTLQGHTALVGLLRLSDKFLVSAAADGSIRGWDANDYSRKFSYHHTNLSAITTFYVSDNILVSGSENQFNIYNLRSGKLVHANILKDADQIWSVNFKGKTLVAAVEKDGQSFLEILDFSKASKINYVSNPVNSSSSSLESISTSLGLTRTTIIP

T3: Cdc4 (budding yeast, UniProt P07834 1-779)
T3 construct: Endogenous protein in yeast lysates, detected with anti-Cdc4 antibodies; also called endogenous Cdc4
T3 sequence: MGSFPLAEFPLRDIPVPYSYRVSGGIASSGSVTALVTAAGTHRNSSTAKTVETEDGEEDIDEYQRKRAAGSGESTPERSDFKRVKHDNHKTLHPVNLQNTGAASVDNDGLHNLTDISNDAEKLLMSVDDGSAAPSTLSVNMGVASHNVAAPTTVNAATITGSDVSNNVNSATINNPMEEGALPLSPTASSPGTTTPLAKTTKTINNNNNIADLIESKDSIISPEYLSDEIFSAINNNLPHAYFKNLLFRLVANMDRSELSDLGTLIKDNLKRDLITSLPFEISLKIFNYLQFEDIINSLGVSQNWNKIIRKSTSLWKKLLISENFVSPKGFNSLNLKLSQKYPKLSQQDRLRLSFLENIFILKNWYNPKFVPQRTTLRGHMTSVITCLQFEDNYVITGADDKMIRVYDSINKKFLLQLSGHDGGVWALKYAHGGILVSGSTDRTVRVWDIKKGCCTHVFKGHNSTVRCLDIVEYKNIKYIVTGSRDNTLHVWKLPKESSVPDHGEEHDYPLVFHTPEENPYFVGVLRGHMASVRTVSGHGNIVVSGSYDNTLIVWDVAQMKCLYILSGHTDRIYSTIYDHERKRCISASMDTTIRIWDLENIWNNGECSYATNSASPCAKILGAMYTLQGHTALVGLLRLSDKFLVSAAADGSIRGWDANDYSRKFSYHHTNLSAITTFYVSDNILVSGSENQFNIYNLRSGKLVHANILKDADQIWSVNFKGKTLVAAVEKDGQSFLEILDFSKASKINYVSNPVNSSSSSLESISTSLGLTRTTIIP

T4: Grr1 (budding yeast, UniProt P24814 1-1151)
T4 construct: Endogenous protein in yeast lysates, detected with anti-Grr1 antibodies; also called endogenous Grr1
T4 sequence: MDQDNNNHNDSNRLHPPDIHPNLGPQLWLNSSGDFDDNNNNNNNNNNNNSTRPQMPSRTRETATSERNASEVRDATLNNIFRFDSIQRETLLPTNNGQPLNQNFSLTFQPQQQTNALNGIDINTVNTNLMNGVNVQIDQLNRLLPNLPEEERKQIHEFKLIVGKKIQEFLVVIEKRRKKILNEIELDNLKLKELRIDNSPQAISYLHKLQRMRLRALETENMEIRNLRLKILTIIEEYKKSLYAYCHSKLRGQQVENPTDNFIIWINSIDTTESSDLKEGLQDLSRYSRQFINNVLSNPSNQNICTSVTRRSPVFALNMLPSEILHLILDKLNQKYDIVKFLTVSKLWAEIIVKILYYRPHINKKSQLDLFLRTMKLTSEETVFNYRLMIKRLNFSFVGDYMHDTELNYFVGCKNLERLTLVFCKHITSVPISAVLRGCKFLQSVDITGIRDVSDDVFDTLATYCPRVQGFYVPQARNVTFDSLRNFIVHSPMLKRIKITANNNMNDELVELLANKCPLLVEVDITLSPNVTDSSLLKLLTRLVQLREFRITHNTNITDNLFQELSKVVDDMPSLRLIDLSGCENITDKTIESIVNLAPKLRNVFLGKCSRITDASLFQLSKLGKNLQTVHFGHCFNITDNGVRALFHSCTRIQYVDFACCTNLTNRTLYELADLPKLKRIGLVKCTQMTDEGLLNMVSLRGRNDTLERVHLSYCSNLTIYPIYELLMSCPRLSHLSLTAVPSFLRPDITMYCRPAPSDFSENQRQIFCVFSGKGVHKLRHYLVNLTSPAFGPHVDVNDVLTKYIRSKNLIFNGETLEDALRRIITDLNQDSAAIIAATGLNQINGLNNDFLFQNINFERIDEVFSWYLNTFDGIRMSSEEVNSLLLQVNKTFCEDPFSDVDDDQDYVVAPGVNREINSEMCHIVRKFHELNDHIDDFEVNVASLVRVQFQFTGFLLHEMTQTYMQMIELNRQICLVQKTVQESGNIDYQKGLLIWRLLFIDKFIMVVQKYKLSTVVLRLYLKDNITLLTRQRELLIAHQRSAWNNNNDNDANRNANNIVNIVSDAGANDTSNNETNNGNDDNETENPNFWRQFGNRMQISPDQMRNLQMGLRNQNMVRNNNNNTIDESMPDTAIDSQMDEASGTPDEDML

T5: Met30 (yeast, UniProt P39014 1-640)
T5 construct: Endogenous protein in yeast lysates, detected with anti-Met30 antibodies; also called endogenous Met30
T5 sequence: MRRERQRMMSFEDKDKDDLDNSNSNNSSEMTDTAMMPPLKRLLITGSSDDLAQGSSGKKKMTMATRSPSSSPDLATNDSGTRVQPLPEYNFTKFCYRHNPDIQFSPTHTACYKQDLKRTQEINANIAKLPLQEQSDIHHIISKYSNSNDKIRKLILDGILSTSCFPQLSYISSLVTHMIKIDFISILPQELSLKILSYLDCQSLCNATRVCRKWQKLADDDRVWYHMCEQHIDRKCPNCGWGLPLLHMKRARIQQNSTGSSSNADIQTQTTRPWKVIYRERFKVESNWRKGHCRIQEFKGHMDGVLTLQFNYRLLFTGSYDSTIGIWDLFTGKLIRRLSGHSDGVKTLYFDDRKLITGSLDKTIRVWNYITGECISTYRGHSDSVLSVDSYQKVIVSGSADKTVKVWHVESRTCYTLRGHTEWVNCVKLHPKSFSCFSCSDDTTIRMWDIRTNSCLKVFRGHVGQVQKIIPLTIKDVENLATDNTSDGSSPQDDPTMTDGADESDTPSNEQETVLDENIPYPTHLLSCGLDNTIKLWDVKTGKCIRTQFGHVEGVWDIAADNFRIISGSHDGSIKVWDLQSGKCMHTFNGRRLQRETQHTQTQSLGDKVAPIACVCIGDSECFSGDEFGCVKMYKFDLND


What was measured:
[1] = biological target: T1, Gal4^AD-Met30 isolates; assay: yeast two-hybrid
[2] = biological target: T2, Gal4^AD-Cdc4 isolates; assay: yeast two-hybrid
[3] = biological target: T3, Cdc4; assay: anti-MYC immunoprecipitation from yeast lysate, immunoblot
[4] = biological target: T4, Grr1; assay: as above
[5] = biological target: T5, Met30; assay: as above

Binder | binding result [1] | binding result [2] | binding result [3] | binding result [4] | binding result [5]
Gal4^DBD-Cdc53^ΔN (other, not shown: small tags and cut ends, Made by NcoI digestion and religation; also called pMT954; Cdc53 lacking the N-terminal 280 residues) MALNKVLITDHIEKLENEFVVLLDARDIEKITSLYALIRRDFTLIPRMASVFENYVKKTGENEISSLLAMHKHNIMKNENANPKKLALMTAHSLSPKDYIKKLLEVHDIFSKIFNESFPDDIPLAKALDNACGAFININEFALPAGSPKSATSKTSEMLAKYSDILLKKATKPEVASDMSDEDIITIFKYLTDKDAFETHYRRLFAKRLIHGTSTSAEDEENIIQRLQAANSMEYTGKITKMFQDIRLSKILEDDFAVALKNEPDYSKAKYPDLQPFVLAENMWPFSYQEVEFKLPKELVPSHEKLKESYSQKHNGRILKWLWPLCRGELKADIGKPGRMPFNFTVTLFQMAILLLYNDADVLTLENIQEGTSLTIQHIAAAMVPFIKFKLIQQVPPGLDALVKPETQFKLSRPYKALKTNINFASGVKNDILQSLSGGGHDNHGNKLGNKRLTEDERIEKELNTERQIFLEACIVRIMKAKRNLPHTTLVNECIAQSHQRFNAKVSMVKRAIDSLIQKGYLQRGDDGESYAYLA | no binding | no binding | – | – | –
Cdc53^Δ9-280 (MYC-tagged) (other, not shown: small tags and cut ends, Deletion built with natural and engineered restriction sites; also called CDC53^MΔ9-280; pMT1850) MSETLPRSMALNKVLITDHIEKLENEFVVLLDARDIEKITSLYALIRRDFTLIPRMASVFENYVKKTGENEISSLLAMHKHNIMKNENANPKKLALMTAHSLSPKDYIKKLLEVHDIFSKIFNESFPDDIPLAKALDNACGAFININEFALPAGSPKSATSKTSEMLAKYSDILLKKATKPEVASDMSDEDIITIFKYLTDKDAFETHYRRLFAKRLIHGTSTSAEDEENIIQRLQAANSMEYTGKITKMFQDIRLSKILEDDFAVALKNEPDYSKAKYPDLQPFVLAENMWPFSYQEVEFKLPKELVPSHEKLKESYSQKHNGRILKWLWPLCRGELKADIGKPGRMPFNFTVTLFQMAILLLYNDADVLTLENIQEGTSLTIQHIAAAMVPFIKFKLIQQVPPGLDALVKPETQFKLSRPYKALKTNINFASGVKNDILQSLSGGGHDNHGNKLGNKRLTEDERIEKELNTERQIFLEACIVRIMKAKRNLPHTTLVNECIAQSHQRFNAKVSMVKRAIDSLIQKGYLQRGDDGESYAYLA | – | – | no binding | no binding | no binding
